This note sets out measurements from patent publication US5670616.

For the experiment, the target named is FLAG GG 9-mer (SEQ ID NO:20).

In turn, Trypsin (type XI DPCC treated) (enzyme) came in with a completeness of proteolytic cleavage (relative mobility on SDS gels) of 100%.
